# In IntAct's records for PubMed 29892012:
# B1: Coiled-coil alpha-helical rod protein 1 (Homo sapiens), Q8TD31 (parent)
# chain: MFPPSGSTGLIPPSHFQARPLSTLPRMAPTWLSDIPLVQPPGHQDVSERRLDTQRPQVTMWERDVSSDRQEPGRRGRSWGLEGSQALSQQAEVIVRQLQELRRLEEEVRLLRETSLQQKMRLEAQAMELEALARAEKAGRAEAEGLRAALAGAEVVRKNLEEGSQRELEEVQRLHQEQLSSLTQAHEEALSSLTSKAEGLEKSLSSLETRRAGEAKELAEAQREAELLRKQLSKTQEDLEAQVTLVENLRKYVGEQVPSEVHSQTWELERQKLLETMQHLQEDRDSLHATAELLQVRVQSLTHILALQEEELTRKVQPSDSLEPEFTRKCQSLLNRWREKVFALMVQLKAQELEHSDSVKQLKGQVASLQEKVTSQSQEQAILQRSLQDKAAEVEVERMGAKGLQLELSRAQEARRRWQQQTASAEEQLRLVVNAVSSSQIWLETTMAKVEGAAAQLPSLNNRLSYAVRKVHTIRGLIARKLALAQLRQESCPLPPPVTDVSLELQQLREERNRLDAELQLSARLIQQEVGRAREQGEAERQQLSKVAQQLEQELQQTQESLASLGLQLEVARQGQQESTEEAASLRQELTQQQELYGQALQEKVAEVETRLREQLSDTERRLNEARREHAKAVVSLRQIQRRAAQEKERSQELRRLQEEARKEEGQRLARRLQELERDKNLMLATLQQEGLLSRYKQQRLLTVLPSLLDKKKSVVSSPRPPECSASAPVAAAVPTRESIKGSLSVLLDDLQDLSEAISKEEAVCQGDNLDRCSSSNPQMSS
# partner: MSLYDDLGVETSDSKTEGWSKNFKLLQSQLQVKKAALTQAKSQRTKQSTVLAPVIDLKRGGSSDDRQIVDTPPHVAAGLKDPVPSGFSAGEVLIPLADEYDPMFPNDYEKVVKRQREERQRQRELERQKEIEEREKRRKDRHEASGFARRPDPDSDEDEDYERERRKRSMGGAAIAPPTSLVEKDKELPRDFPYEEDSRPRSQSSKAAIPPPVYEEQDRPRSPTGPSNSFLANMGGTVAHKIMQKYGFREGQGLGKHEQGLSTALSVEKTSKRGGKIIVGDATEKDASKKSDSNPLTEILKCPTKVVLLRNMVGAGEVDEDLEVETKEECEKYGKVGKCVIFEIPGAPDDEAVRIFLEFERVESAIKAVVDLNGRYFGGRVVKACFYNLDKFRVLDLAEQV
# B2: TBC1 domain family member 22B (Homo sapiens), Q9NU19 (parent)
# chain: MAAENSKQFWKRSAKLPGSIQPVYGAQHPPLDPRLTKNFIKERSKVNTVPLKNKKASSFHEFARNTSDAWDIGDDEEEDFSSPSFQTLNSKVALATAAQVLENHSKLRVKPERSQSTTSDVPANYKVIKSSSDAQLSRNSSDTCLRNPLHKQQSLPLRPIIPLVARISDQNASGAPPMTVREKTRLEKFRQLLSSQNTDLDELRKCSWPGVPREVRPITWRLLSGYLPANTERRKLTLQRKREEYFGFIEQYYDSRNEEHHQDTYRQIHIDIPRTNPLIPLFQQPLVQEIFERILFIWAIRHPASGYVQGINDLVTPFFVVFLSEYVEEDVENFDVTNLSQDMLRSIEADSFWCMSKLLDGIQDNYTFAQPGIQKKVKALEELVSRIDEQVHNHFRRYEVEYLQFAFRWMNNLLMRELPLRCTIRLWDTYQSEPEGFSHFHLYVCAAFLIKWRKEILDEEDFQGLLMLLQNLPTIHWGNEEIGLLLAEAYRLKYMFADAPNHYRR
# partner: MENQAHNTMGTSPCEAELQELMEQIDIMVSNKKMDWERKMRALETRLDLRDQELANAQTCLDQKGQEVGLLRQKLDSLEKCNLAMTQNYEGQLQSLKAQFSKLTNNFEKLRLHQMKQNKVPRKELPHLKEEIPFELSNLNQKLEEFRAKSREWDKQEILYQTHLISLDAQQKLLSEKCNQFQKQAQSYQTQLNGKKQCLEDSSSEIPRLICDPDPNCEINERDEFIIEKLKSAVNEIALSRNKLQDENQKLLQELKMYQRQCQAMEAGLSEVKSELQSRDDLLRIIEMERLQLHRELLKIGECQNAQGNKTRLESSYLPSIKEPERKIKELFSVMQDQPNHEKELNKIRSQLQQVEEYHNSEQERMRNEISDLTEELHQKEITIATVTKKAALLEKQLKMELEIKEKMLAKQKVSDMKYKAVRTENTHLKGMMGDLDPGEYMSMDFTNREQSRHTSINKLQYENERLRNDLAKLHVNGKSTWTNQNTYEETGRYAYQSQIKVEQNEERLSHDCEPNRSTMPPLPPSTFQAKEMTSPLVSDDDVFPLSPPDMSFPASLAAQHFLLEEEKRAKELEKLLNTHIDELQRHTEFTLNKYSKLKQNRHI
# B3: Glycodelin (Homo sapiens), P09466 (parent)
# chain: MLCLLLTLGVALVCGVPAMDIPQTKQDLELPKLAGTWHSMAMATNNISLMATLKAPLRVHITSLLPTPEDNLEIVLHRWENNSCVEKKVLGEKTENPKKFKINYTVANEATLLDTDYDNFLFLCLQDTTTPIQSMMCQYLARVLVEDDEIMQGFIRAFRPLPRHLWYLLDLKQMEEPCRF
# partner: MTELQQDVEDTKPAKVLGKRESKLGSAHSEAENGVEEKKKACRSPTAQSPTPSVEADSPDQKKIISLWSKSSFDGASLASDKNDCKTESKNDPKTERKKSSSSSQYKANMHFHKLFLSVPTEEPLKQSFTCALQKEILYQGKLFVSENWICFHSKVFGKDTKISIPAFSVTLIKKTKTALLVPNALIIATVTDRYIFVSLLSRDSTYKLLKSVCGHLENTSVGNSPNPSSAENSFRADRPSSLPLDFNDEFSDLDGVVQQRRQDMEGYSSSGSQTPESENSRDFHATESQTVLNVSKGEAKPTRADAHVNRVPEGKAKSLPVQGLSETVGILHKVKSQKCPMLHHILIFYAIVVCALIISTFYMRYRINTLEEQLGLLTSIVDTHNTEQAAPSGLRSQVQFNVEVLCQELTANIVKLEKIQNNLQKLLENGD
# B4: Glutaredoxin-3 (Homo sapiens), O76003 (parent)
# chain: MAAGAAEAAVAAVEEVGSAGQFEELLRLKAKSLLVVHFWAPWAPQCAQMNEVMAELAKELPQVSFVKLEAEGVPEVSEKYEISSVPTFLFFKNSQKIDRLDGAHAPELTKKVQRHASSGSFLPSANEHLKEDLNLRLKKLTHAAPCMLFMKGTPQEPRCGFSKQMVEILHKHNIQFSSFDIFSDEEVRQGLKAYSSWPTYPQLYVSGELIGGLDIIKELEASEELDTICPKAPKLEERLKVLTNKASVMLFMKGNKQEAKCGFSKQILEILNSTGVEYETFDILEDEEVRQGLKAYSNWPTYPQLYVKGELVGGLDIVKELKENGELLPILRGEN
# partner: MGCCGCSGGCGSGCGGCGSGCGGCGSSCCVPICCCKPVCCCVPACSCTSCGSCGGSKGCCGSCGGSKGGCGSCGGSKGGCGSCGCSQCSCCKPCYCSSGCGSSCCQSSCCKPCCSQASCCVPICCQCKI
# B5: Small glutamine-rich tetratricopeptide repeat-containing protein beta (Homo sapiens), Q96EQ0 (parent)
# chain: MSSIKHLVYAVIRFLREQSQMDTYTSDEQESLEVAIQCLETVFKISPEDTHLAVSQPLTEMFTSSFCKNDVLPLSNSVPEDVGKADQLKDEGNNHMKEENYAAAVDCYTQAIELDPNNAVYYCNRAAAQSKLGHYTDAIKDCEKAIAIDSKYSKAYGRMGLALTALNKFEEAVTSYQKALDLDPENDSYKSNLKIAEQKLREVSSPTGTGLSFDMASLINNPAFISMAASLMQNPQVQQLMSGMMTNAIGGPAAGVGGLTDLSSLIQAGQQFAQQIQQQNPELIEQLRNHIRSRSFSSSAEEHS
# partner: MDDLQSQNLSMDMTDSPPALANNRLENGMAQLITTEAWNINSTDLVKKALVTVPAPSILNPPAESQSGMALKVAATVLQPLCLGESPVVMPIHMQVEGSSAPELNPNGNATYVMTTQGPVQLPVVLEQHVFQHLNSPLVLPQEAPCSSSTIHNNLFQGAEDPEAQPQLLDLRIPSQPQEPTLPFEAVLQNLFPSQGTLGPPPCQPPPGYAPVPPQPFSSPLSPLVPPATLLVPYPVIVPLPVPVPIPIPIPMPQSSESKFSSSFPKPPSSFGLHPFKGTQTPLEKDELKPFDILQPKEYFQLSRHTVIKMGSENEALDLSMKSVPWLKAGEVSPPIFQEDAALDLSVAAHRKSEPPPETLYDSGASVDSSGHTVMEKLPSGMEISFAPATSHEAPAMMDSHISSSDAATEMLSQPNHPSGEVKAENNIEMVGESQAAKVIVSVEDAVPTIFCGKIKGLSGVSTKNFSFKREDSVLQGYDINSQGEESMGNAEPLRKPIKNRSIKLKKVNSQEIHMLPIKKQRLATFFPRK
# B6: Glutaredoxin-3 (Homo sapiens), O76003 (parent)
# chain: B4 chain
# Variants of: B1
# Details: with spf45_human RBM17, Q96I25
row,Variant,effect of a mutation on the interaction
1,W337R,disrupting interaction strength

# Variants of: B2
# Details: with deup1_human DEUP1, Q05D60
row,Variant,effect of a mutation on the interaction
1,A349T,disrupting interaction strength

# Variants of: B3
# Details: with grm2b_human GRAMD2B
row,Variant,effect of a mutation on the interaction
1,V75F,disrupting interaction strength

# Variants of: B4
# Details: with kra56_human KRTAP5-6, Q6L8G9
row,Variant,effect of a mutation on the interaction
1,P145A,with no effect

# Variants of: B5
# Details: with rai2_human RAI2, Q9Y5P3
row,Variant,effect of a mutation on the interaction
1,R292W,with no effect

# Variants of: B6
# Details: with grn_human GRN
row,Variant,effect of a mutation on the interaction
1,P145A,with no effect

# Variants of: B6
# Details: with cpin1_human CIAPIN1, Q6FI81
# Chain of cpin1_human CIAPIN1, Q6FI81 (Q6FI81 whole entry): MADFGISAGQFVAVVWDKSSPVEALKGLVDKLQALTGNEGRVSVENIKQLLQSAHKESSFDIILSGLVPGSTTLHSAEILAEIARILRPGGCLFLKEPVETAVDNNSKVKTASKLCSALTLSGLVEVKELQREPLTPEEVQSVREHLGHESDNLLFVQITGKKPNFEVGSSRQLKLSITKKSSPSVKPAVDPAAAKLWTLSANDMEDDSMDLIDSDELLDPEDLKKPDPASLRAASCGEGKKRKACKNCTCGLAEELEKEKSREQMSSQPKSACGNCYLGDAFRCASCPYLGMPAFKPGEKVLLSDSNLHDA
row,Variant,effect of a mutation on the interaction
1,P145A,with no effect

# Variants of: B6
# Details: with tmm25_human TMEM25, Q86YD3
# Chain of tmm25_human TMEM25, Q86YD3 (Q86YD3 whole entry): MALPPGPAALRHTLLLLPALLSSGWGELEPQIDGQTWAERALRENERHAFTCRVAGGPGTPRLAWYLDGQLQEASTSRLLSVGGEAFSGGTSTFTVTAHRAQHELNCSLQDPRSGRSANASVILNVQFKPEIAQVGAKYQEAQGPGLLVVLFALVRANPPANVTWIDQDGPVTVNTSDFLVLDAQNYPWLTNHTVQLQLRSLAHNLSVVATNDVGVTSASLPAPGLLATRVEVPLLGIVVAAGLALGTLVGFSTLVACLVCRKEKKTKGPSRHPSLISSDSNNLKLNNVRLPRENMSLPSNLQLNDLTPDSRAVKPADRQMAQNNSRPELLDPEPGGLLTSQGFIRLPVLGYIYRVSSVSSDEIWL
row,Variant,effect of a mutation on the interaction
1,P145A,with no effect
